Molecular target: T1, HLA-A*02:01_… (HLA-PEPTIDE target G8), recombinant soluble complex (human, UniProt P04439 25-297 at identity 0.94); P61769 21-119, enzymatically biotinylated (BirA) for screening and functional assays)
T1 construct: Also crystallised with Fab G8-P1C11
Experiment: scFv PPE ELISA

Row | Binder | fold binding to target pHLA over minipool of negative control pHLAs
1 | scFv G8-P1A06 (scFv, V domains shown) VH: QVQLVQSGAEVKKPGASVKVSCKASGYTFTNYYMHWVRQAPGQGLEWMGWMNPIGGGTGYAQKFQGRVTMTRDTSTSTVYMELSSLRSEDTAVYYCARVYDFWSVLSGFDIWGQGTLVTVSS VL: DIQMTQSPSSLSASVGDRVTITCRASQAISNSLAWYQQKPGKAPKLLIYAASTLQSGVPSRFSGSGSGTDFTLTISSLQPEDFATYYCGQSYSTPPTFGQGTKLEIK | ≥ 3 fold
2 | scFv G8-P1A04 (scFv, V domains shown) VH: QVQLVQSGAEVKKPGASVKVSCKASGYPFIGQYLHWVRQAPGQGLEWMGIINPSGDSATYAQKFQGRVTMTRDTSTSTVYMELSSLRSEDTAVYYCARDLSYYYGMDVWGQGTTVTVSS VL: DIQMTQSPSSLSASVGDRVTITCWASQGISSYLAWYQQKPGKAPKLLIYAASSLQSGVPSRFSGSGSGTDFTLTISSLQPEDFATYYCQQSYNTPWTFGPGTKVDIK | ≥ 3 fold
3 | scFv G8-P1B03 (scFv, V domains shown) VH: EVQLLESGGGLVQPGGSLRLSCAASGFTFSDYYMSWVRQAPGKGLEWVSGINWNGGSTGYADSVKGRFTISRDNSKNTLYLQMNSLRAEDTAVYYCARVEQGYDIYYYYYMDVWGKGTTVTVSS VL: DIQMTQSPSSLSASVGDRVTITCRASQSISSYLNWYQQKPGKAPKLLIYKASSLESGVPSRFSGSGSGTDFTLTISSLQPEDFATYYCQQSYSAPYTFGPGTKVDIK | ≥ 3 fold
4 | scFv G8-P1A03 (scFv, V domains shown) VH: QVQLVQSGAEVKKPGASVKVSCKASGGTFSRSAITWVRQAPGQGLEWMGWINPNSGATNYAQKFQGRVTMTRDTSTSTVYMELSSLRSEDTAVYYCARDDYGDYVAYFQHWGQGTLVTVSS VL: DIQMTQSPSSLSASVGDRVTITCRASQSITSYLNWYQQKPGKAPKLLIYDASNLETGVPSRFSGSGSGTDFTLTISSLQPEDFATYYCQQNYNSVTFGQGTKLEIK | ≥ 3 fold

Now from value to binder:

Row | fold binding to target pHLA over minipool of negative control pHLAs | Binder
5 | ≥ 3 fold | scFv G8-P1D02 (scFv, V domains shown) VH: EVQLLESGGGLVQPGGSLRLSCAASGFTFSSYWMSWVRQAPGKGLEWVSSISGRGDNTYYADSVKGRFTISRDNSKNTLYLQMNSLRAEDTAVYYCARASGSGYYYYYGMDVWGQGTTVTVSS VL: DIQMTQSPSSLSASVGDRVTITCQASQDISNYLNWYQQKPGKAPKLLIYAASSLQSGVPSRFSGSGSGTDFTLTISSLQPEDFATYYCQQSYSAPYTFGGGTKVEIK
6 | ≥ 3 fold | scFv G8-P1C11 (scFv, V domains shown) VH: QVQLVQSGAEVKKPGASVKVSCKASGGTLSSYPINWVRQAPGQGLEWMGWISTYSGHADYAQKLQGRVTMTRDTSTSTVYMELSSLRSEDTAVYYCARSYDYGDYLNFDYWGQGTLVTVSS VL: DIQMTQSPSSLSASVGDRVTITCQASQDISNYLNWYQQKPGKAPKLLIYAASSLQSGVPSRFSGSGSGTDFTLTISSLQPEDFATYYCQQSYSIPPTFGGGTKVDIK
7 | ≥ 3 fold | scFv G8-P2B05 (scFv, V domains shown) VH: EVQLLESGGGLVQPGGSLRLSCAASGFDFSIYSMNWVRQAPGKGLEWVSAISGSGGSTYYADSVKGRFTISRDNSKNTLYLQMNSLRAEDTAVYYCASNGNYYGSGSYYNYWGQGTLVTVSS VL: DIQMTQSPSSLSASVGDRVTITCRASQSISRWLAWYQQKPGKAPKLLIYAASSLQSGVPSRFSGSGSGTDFTLTISSLQPEDFATYYCQQYSTYPITIGQGTKVEIK
8 | ≥ 3 fold | scFv G8-P1H08 (scFv, V domains shown) VH: QVQLVQSGAEVKKPGASVKVSCKASGYTFGNYFMHWVRQAPGQGLEWMGMVNPSGGSETFAQKFQGRVTMTRDTSTSTVYMELSSLRSEDTAVYYCAASTWIQPFDYWGQGTLVTVSS VL: DIQMTQSPSSLSASVGDRVTITCRASQGINSYLAWYQQKPGKAPKLLIYDASNLETGVPSRFSGSGSGTDFTLTISSLQPEDFATYYCQQHNSYPPTFGQGTKLEIK
